Assay [1] has as its target T1, Ptc (patched receptor) of the cells of chicken intermediate neural plate explants. Nature of the assay: cell-based or functional assay.
Assay [2] concerns the target T2, full-length mouse Ptc (patched receptor) (mouse, UniProt Q61115 1-1434).
T2 construct: whole, on cells; Predicted mass 159 kDa
T2 sequence (looked up): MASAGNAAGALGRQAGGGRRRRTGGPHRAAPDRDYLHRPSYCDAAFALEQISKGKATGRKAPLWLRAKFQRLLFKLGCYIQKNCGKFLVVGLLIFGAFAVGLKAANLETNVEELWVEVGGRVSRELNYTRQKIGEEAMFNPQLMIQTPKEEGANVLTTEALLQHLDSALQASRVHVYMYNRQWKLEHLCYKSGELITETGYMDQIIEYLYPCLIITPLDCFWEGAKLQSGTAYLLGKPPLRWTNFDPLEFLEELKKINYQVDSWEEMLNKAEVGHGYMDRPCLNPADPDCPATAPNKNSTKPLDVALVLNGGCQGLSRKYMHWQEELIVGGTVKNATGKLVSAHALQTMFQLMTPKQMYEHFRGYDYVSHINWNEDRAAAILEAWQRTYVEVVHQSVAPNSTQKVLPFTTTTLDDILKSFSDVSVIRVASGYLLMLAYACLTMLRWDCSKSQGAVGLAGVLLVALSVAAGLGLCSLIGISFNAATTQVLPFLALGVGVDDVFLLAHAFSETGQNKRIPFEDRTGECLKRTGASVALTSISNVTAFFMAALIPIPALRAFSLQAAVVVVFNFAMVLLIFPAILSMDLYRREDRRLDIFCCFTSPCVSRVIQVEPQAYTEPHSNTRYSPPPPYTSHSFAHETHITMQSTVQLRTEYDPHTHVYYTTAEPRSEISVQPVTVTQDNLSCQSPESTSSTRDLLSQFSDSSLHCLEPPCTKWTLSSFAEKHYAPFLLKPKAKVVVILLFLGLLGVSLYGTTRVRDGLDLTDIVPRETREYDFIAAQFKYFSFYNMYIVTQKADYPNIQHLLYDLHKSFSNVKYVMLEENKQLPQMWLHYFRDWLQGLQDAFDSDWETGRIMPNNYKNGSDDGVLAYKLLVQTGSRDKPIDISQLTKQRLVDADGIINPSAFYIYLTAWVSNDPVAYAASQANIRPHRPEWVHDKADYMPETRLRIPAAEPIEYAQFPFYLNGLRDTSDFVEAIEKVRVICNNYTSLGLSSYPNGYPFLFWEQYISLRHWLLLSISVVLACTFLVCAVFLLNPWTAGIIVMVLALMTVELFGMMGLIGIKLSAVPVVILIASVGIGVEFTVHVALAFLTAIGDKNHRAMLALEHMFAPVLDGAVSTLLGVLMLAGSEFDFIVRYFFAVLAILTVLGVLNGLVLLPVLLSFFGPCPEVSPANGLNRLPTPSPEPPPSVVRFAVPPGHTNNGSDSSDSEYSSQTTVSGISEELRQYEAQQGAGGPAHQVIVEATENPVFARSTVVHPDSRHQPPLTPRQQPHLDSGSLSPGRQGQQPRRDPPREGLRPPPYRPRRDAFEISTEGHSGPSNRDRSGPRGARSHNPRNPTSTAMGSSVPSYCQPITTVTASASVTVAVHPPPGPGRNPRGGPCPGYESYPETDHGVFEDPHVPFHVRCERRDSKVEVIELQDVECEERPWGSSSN
The experiment in a line: competition of the disuccinimidyl suberate crosslinking of 32P-Shh-N to Ptc-expressing EcR-293 cells.

The target of assay [3] is T1, Ptc (patched receptor) of the cells of …. Nature of the assay: cell-based or functional assay. The source holds these as a separate data set.

T1 sequence (Q90693 whole entry): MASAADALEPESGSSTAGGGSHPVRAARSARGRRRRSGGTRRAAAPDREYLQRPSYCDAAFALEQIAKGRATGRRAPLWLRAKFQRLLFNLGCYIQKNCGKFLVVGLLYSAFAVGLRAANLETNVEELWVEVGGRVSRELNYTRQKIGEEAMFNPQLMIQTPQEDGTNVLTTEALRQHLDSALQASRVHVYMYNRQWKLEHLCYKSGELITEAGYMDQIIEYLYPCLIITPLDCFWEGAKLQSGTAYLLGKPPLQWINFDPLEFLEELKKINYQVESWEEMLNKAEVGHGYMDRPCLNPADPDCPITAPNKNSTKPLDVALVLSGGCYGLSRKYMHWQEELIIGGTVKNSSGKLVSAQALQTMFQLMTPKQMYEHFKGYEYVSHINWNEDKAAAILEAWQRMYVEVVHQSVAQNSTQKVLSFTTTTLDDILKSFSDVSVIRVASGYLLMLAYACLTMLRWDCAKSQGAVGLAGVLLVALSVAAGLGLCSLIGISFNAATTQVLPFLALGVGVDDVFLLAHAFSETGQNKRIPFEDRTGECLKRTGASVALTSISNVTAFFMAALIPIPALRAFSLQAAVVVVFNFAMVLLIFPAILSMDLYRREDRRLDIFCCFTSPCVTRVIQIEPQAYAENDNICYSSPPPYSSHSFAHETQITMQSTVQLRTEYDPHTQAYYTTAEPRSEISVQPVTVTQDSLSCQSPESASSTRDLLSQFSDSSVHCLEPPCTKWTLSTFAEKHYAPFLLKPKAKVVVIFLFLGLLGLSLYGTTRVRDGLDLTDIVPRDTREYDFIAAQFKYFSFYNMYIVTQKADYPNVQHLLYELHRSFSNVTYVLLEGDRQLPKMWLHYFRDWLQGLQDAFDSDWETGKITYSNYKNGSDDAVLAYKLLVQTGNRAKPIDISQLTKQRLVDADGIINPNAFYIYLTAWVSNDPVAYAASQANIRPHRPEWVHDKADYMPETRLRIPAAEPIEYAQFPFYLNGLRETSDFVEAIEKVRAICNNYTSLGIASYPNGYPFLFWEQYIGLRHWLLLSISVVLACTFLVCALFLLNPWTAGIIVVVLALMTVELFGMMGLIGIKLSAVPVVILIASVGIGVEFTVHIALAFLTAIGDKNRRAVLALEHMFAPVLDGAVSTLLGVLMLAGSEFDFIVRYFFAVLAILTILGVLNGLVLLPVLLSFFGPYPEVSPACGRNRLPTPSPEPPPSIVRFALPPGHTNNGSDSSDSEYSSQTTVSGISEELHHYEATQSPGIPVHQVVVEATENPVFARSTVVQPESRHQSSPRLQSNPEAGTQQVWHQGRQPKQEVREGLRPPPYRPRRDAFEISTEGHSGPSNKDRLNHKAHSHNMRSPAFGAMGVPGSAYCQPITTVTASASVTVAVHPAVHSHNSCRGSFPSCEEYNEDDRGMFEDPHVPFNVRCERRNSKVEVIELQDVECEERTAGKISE

B1: Shh-N SG protein (S178A, K179A) (ligand)
chain: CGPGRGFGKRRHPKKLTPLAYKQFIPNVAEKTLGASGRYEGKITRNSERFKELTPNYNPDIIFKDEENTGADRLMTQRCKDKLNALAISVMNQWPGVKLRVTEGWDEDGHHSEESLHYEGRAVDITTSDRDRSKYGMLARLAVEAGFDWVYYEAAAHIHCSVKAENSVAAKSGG
Take B1: in assay [1], the “HNF-3β induction, nM (minimum concentration for uniform induction, chicken neural plate explants)” value (“HNF-3β induction, nM” below) was approximately 100 nM and the “Pax-7 repression, nM (minimum concentration for complete repression, chicken neural plate explants)” value (“Pax-7 repression, nM” below) is approximately 30 nM.

B2: Shh-N SB altered protein (N51A, V52A, T56A, E168A) (ligand)
chain: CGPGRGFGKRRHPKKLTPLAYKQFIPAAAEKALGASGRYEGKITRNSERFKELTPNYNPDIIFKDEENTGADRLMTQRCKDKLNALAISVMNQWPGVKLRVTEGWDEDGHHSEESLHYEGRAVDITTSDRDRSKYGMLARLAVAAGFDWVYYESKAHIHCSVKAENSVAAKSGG
Take B2: in assay [1], the “HNF-3β induction, nM” value was not below 20 nM and the “Pax-7 repression, nM” value is approximately 4 nM.

B3: Shh-N SE protein (P42A, K46A) (ligand)
chain: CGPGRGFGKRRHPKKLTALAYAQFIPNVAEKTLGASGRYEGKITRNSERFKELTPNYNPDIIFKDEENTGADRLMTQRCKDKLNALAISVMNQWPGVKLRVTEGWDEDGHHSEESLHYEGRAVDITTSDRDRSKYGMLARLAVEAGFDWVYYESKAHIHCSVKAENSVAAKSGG
Take B3: in assay [1], the “HNF-3β induction, nM” value is approximately 100 nM and the “Pax-7 repression, nM” value is approximately 20 nM.

B4: Shh-N H135A, E177A double mutant (EH) protein (ligand)
chain: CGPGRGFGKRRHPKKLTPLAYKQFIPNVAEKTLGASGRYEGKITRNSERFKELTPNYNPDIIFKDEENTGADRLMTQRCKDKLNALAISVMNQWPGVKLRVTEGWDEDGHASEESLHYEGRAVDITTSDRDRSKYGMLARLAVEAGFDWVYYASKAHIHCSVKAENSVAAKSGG
Regarding B4, in assay [1], the “HNF-3β induction, nM” value is not below 20 nM and the “Pax-7 repression, nM” value is approximately 10 nM.

B5: Shh-N SA altered protein (K75A, E76A, Y81A, D105A, N116A, E189A, K195A) (ligand)
chain: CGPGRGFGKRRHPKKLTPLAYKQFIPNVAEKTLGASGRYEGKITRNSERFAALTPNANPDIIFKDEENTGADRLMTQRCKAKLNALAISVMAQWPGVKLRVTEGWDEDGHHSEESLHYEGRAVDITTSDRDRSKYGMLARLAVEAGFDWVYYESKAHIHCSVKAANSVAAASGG
For B5, in assay [1], the “HNF-3β induction, nM” value was not above 20 nM and the “Pax-7 repression, nM” value was approximately 4 nM.

B6: Shh-N SC mutant protein (P42A, K46A, R154A, S157A, S178A, K179A) (ligand)
chain: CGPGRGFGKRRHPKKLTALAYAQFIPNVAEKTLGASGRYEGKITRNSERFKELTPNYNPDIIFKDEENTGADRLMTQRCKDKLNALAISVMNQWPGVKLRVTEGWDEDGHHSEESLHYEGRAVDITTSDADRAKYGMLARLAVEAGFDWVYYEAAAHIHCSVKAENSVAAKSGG
notes: Limits of the entry not visible; also called SC altered protein
Regarding B6, in assay [1], the “HNF-3β induction, nM” value is more than 1000 nM and the “Pax-7 repression, nM” value is more than 1000 nM. Further, the binding result in assay [2] is “no binding”.

B7: Shh-N SF protein (R154A, S157A) (ligand)
chain: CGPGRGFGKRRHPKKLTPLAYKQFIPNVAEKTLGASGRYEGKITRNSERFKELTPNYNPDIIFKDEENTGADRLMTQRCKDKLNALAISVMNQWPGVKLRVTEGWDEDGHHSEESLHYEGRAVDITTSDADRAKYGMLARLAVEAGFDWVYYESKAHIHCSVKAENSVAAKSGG
For B7, in assay [1], the “HNF-3β induction, nM” value is not below 100 nM and the “Pax-7 repression, nM” value was approximately 70 nM.

B8: Shh-N SD altered protein (E90A, D132A, E138A) (ligand)
chain: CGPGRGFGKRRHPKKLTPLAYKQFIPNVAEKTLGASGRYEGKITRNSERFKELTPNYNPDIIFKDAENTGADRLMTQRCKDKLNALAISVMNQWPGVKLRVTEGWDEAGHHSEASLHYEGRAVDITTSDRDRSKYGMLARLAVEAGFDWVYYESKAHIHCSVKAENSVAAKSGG
As for B8, in assay [3], the “reduction in neural plate signaling activity against wild type” value was approximately 2.5 fold. Also, in assay [1], the “HNF-3β induction, nM” value was not below 20 nM and the “Pax-7 repression, nM” value was approximately 10 nM.

Values taken from US6942988 (Johns Hopkins, dated 2005).
